Test [1] addresses T1, monomeric CD19 extracellular domain (UniProt P15391 20-291, limits assumed).
T1 construct: extracellular domain; also called monomeric CD19 protein
T1 sequence (looked up): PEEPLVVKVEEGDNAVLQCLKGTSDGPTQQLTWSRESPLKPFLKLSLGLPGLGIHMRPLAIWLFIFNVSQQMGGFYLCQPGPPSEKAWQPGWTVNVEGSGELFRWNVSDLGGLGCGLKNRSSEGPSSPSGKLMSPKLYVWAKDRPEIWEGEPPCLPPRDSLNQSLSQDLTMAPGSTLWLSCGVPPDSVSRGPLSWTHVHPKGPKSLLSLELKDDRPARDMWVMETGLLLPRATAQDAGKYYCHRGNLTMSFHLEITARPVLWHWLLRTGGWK
As to the kind of experiment: SPR as printed, ForteBio instrument (per Estep et al. 2013); monomeric CD19 extracellular domain; monomeric CD19 protein. Here is the method: (§1) As noted above, the constructs produced contained an anti-CD19 scFv having the amino acid sequence set forth in SEQ ID NO: 9 or 18. The binding affinity of the two CD19 binding domains to CD19 were measured by SPR using a monomeric CD19 extracellular domain and a dimeric CD19 extracellular domain fused with human IgG1 Fc. Binding kinetic parameters were measured using an instrument (available under the tradename ForteBio™ from Pall Corporation®) generally as previously described (see, Estep et al. (2013) MAbs, 5 (2): 270-78).
(Biolayer interferometry detects binding as a change in optical thickness at a sensor tip.)

The target of test [2] is T2, dimeric CD19 extracellular domain fused with human IgG1 Fc (human, UniProt P15391 20-291, limits assumed).
T2 construct: extracellular domain; also called dimeric CD19 protein; not shown: human IgG1 Fc
T2 sequence (looked up): T1 sequence (looked up)
Nature of the test: SPR as printed, ForteBio instrument (per Estep et al. 2013); dimeric CD19 extracellular domain-human IgG1 Fc; dimeric CD19 protein (IgG1 Fc fusion). Here is the method:
as §1

B1: CD19 binding domain having the sequence of SEQ ID NO: 9 (scFv)
scFv: QVQLVQSGAEVKKPGASVKVSCKASGYTFTDYIMHWVRQAPGQGLEWMGYINPYNDGSKYTEKFQGRVTMTSDTSISTAYMELSRLRSDDTAVYYCARGTYYYGPQLFDYWGQGTTVTVSSGGGGSGGGGSGGGGSDIVMTQTPLSLSVTPGQPASISCKSSQSLETSTGTTYLNWYLQKPGQSPQLLIYRVSKRFSGVPDRFSGSGSGTDFTLKISRVEAEDVGVYYCLQLLEDPYTFGQGTKLEIK
notes: also called Roche mAb scFv
Broadly, the Kd is a measure of binding affinity in units of concentration. Low readings indicate tighter binding, high ones weaker binding. On to B1, for which the Kd in test [1] worked out at 7 nM; in test [2], 5 nM.

B2: CD19 binding domain having the sequence of SEQ ID NO: 18 (scFv)
scFv: QVQLQESGPGLVKPSQTLSLTCTVSGGSISTSGMGVGWIRQHPGKGLEWIGHIWWDDDKRYNPALKSRVTISVDTSKNQFSLKLSSVTAADTAVYYCARMELWSYYFDYWGQGTLVTVSSGGGGSGGGGSGGGGSEIVLTQSPATLSLSPGERATLSCSASSSVSYMHWYQQKPGQAPRLLIYDTSKLASGIPARFSGSGSGTDFTLTISSLEPEDFAVYYCFQGSVYPFTFGQGTKLEIKR
notes: also called SG mAb scFv
For B2, the equilibrium dissociation constant (Kd) in test [1] came to 11 nM; in test [2] it was 15 nM.

The values are drawn from patent US12404328 (CULLINAN MANAGEMENT, dated 2025).
